This assay deals with VipB (Vibrio cholerae). Nature of the assay: cryo-EM structure.

In turn, VipA (natural protein) came in with a stoichiometry N of 1.

The stoichiometry N is a count of units in the complex or per binding partner.
